In patent US7566535B2, “Enhanced oligonucleotide-mediated nucleic acid sequence alteration” (University of Delaware, priority 2002, dated 2009):
In the oligonucleotide strings, read from the 5' end, every base follows the letter of its sugar. An asterisk marks phosphorothioate; unmarked linkages are phosphodiester. Other units and linkages are bracketed, terminal groups are in braces. A string of capitals states the bases alone. d = 2'-deoxy (DNA)

Key:
[1] = system: pAURHYG(ins)eGFP; experiment: In vivo correction of episomal pAURHYG(ins)eGFP in yeast; settings: for Average colony count on hygromycin plates / hygromycin-resistant colonies per aureobasidin-resistant colony: wild-type LSY678; for Colonies on Hygromycin / Correction Efficiency / Fold: 5 μg oligo
[2] = system: CYC1 gene; experiment: CYC1 gene repair in diploid yeast strains, growth on glycerol (YPG); settings: YMH55; 5 μg oligo
[3] = system: pAURHYG(x)eGFP; experiment: Hygromycin gene correction in yeast LSY678 with or without trichostatin A; settings: 5 μg oligo
[4] = system: pAURHYG(x)eGFP; experiment: Strand bias of hygromycin gene correction in rad1 and rad10 yeast mutants
[5] = system: pAURHYG(rep)eGFP; experiment: Correction of pAURHYG(rep)eGFP in yeast LSY678 with or without hydroxyurea; settings: 5 μg oligo (1.62 μg Hyg10)
[6] = system: pAURHYG(rep)eGFP; experiment: In vivo correction of episomal pAURHYG(rep)eGFP in yeast, hygromycin-resistant colonies; settings: for Average colony count on hygromycin plates / hygromycin-resistant colonies per aureobasidin-resistant colony: wild-type LSY678; for Colonies on Hygromycin / Correction Efficiency / Fold: 5 μg oligo
[7] = Cells both pre-treated and treated during recovery with 50 μg/mL trichostatin A

B1: HygE3T/74: 74-base single-stranded DNA oligonucleotide, three phosphorothioate linkages at each end, SEQ ID NO: 8 (nucleic acid)
DNA: dC*dT*dC*dGdTdGdCdTdTdTdCdAdGdCdTdTdCdGdAdTdGdTdAdGdGdAdGdGdGdCdGdTdGdGdAdTdAdCdGdTdCdCdTdGdCdGdGdGdTdAdAdAdTdAdGdCdTdGdCdGdCdCdGdAdTdGdGdTdTdTdC*dT*dA*dC
- Average colony count on hygromycin plates ([1]; 1.0 μg oligo): 5
- hygromycin-resistant colonies per aureobasidin-resistant colony ([1]; 1.0 μg oligo): 0.03
- Average colony count on hygromycin plates ([1]; 2.5 μg oligo): 47
- hygromycin-resistant colonies per aureobasidin-resistant colony ([1]; 2.5 μg oligo): 0.29
- Average colony count on hygromycin plates ([1]; 5.0 μg oligo): 199
- hygromycin-resistant colonies per aureobasidin-resistant colony ([1]; 5.0 μg oligo): 1.24
- Average colony count on hygromycin plates ([1]; 7.5 μg oligo): 54
- hygromycin-resistant colonies per aureobasidin-resistant colony ([1]; 7.5 μg oligo): 0.34
- Average colony count on hygromycin plates ([1]; 10.0 μg oligo): 17
- hygromycin-resistant colonies per aureobasidin-resistant colony ([1]; 10.0 μg oligo): 1.10
- Colonies on Hygromycin ([1]; Exo1 mutant): 2
- Correction Efficiency ([1]; Exo1 mutant): 0.01
- Fold ([1]; Exo1 mutant): 0x
- Colonies on Hygromycin ([1]; mre11 mutant): 3
- Correction Efficiency ([1]; mre11 mutant): 0.09
- Fold ([1]; mre11 mutant): 0.03x
- Colonies on Hygromycin ([1]; msh2 mutant): 0
- Correction Efficiency ([1]; msh2 mutant): 0
- Fold ([1]; msh2 mutant): 0x
- Colonies on Hygromycin ([1]; msh3 mutant): 1
- Correction Efficiency ([1]; msh3 mutant): 0.05
- Fold ([1]; msh3 mutant): 0.02x
- Colonies on Hygromycin ([1]; msh6 mutant): 0
- Correction Efficiency ([1]; msh6 mutant): 0
- Fold ([1]; msh6 mutant): 0x
- Colonies on Hygromycin ([1]; pms1 mutant): 111
- Correction Efficiency ([1]; pms1 mutant): 18.5
- Fold ([1]; pms1 mutant): 5.35x
- Colonies on Hygromycin ([1]; rad1 mutant): 52
- Correction Efficiency ([1]; rad1 mutant): 0.59
- Fold ([1]; rad1 mutant): 0.17x
- Colonies on Hygromycin ([1]; rad2 mutant): 113
- Correction Efficiency ([1]; rad2 mutant): 1.79
- Fold ([1]; rad2 mutant): 0.52x
- Colonies on Hygromycin ([1]; rad10 mutant): 14
- Correction Efficiency ([1]; rad10 mutant): 0.14
- Fold ([1]; rad10 mutant): 0.04x
- Colonies on Hygromycin ([1]; rad23 mutant): 1
- Correction Efficiency ([1]; rad23 mutant): 0.01
- Fold ([1]; rad23 mutant): 0x
- Colonies on Hygromycin ([1]; rad50 mutant): 1
- Correction Efficiency ([1]; rad50 mutant): 0.06
- Fold ([1]; rad50 mutant): 0.02x
- Colonies on Hygromycin ([1]; rad51/52 mutant): 3
- Correction Efficiency ([1]; rad51/52 mutant): 0.3
- Fold ([1]; rad51/52 mutant): 0.01x
- Colonies on Hygromycin ([1]; rad51 mutant): 19
- Correction Efficiency ([1]; rad51 mutant): 0.59
- Fold ([1]; rad51 mutant): 0.17x
- Colonies on Hygromycin ([1]; rad52 mutant): 31
- Correction Efficiency ([1]; rad52 mutant): 0.86
- Fold ([1]; rad52 mutant): 0.24x
- Colonies on Hygromycin ([1]; rad54 mutant): 0
- Correction Efficiency ([1]; rad54 mutant): 0
- Fold ([1]; rad54 mutant): 0x
- Colonies on Hygromycin ([1]; rad55 mutant): 0
- Correction Efficiency ([1]; rad55 mutant): 0
- Fold ([1]; rad55 mutant): 0X
- Colonies on Hygromycin ([1]; rad57 mutant): 34
- Correction Efficiency ([1]; rad57 mutant): 0.33
- Fold ([1]; rad57 mutant): 0.10x
- Colonies on Hygromycin ([1]; rad59 mutant): 116
- Correction Efficiency ([1]; rad59 mutant): 2.47
- Fold ([1]; rad59 mutant): 0.71x
- Colonies on Hygromycin ([1]; wild type): 256
- Correction Efficiency ([1]; wild type): 3.46
- Fold ([1]; wild type): 1x
- Colonies on Hygromycin ([1]; xrs2 mutant): 6
- Correction Efficiency ([1]; xrs2 mutant): 0.04
- Fold ([1]; xrs2 mutant): 0.01x
- C.E. [2]: 0 ×10^−4
- No. of YPG Plate Colonies [2]: 0
- Correction Efficiency [3, 7]: 2.05 1/10^5
- Hyg^r [3, 7]: 230
- Correction Efficiency ([3]; Cells treated during recovery with 50 μg/mL trichostatin A): 0.34 1/10^5
- Correction Efficiency ([3]; No treatment): 0.16 1/10^5
- Colonies on Hygromycin ([4]; rad1 mutant): 3
- Colonies on Hygromycin ([4]; rad10 mutant): 2
- Correction Efficiency ([5]; 20 mM hydroxyurea 4 h pre-treatment, growth time 10 min): 3.1 hygromycin resistant colonies
- Correction Efficiency ([5]; 20 mM hydroxyurea 4 h pre-treatment, growth time 20 min): 4.9 hygromycin resistant colonies
- Correction Efficiency ([5]; 20 mM hydroxyurea 4 h pre-treatment, growth time 40 min): 9.5 hygromycin resistant colonies
- Correction Efficiency ([5]; 20 mM hydroxyurea 4 h pre-treatment, growth time 60 min): 7.8 hygromycin resistant colonies
- Correction Efficiency ([5]; 20 mM hydroxyurea 4 h pre-treatment, growth time 90 min): 22.4 hygromycin resistant colonies
- Correction Efficiency ([5]; no hydroxyurea, growth time 10 min): 0.15 hygromycin resistant colonies
- Correction Efficiency ([5]; no hydroxyurea, growth time 20 min): 2.9 hygromycin resistant colonies
- Correction Efficiency ([5]; no hydroxyurea, growth time 40 min): 3.4 hygromycin resistant colonies
- Correction Efficiency ([5]; no hydroxyurea, growth time 60 min): 2.32 hygromycin resistant colonies
- Correction Efficiency ([5]; no hydroxyurea, growth time 90 min): 0.56 hygromycin resistant colonies
- Average colony count on hygromycin plates ([6]; 1.0 μg oligo): 5
- hygromycin-resistant colonies per aureobasidin-resistant colony ([6]; 1.0 μg oligo): 0.03
- Average colony count on hygromycin plates ([6]; 2.5 μg oligo): 99
- hygromycin-resistant colonies per aureobasidin-resistant colony ([6]; 2.5 μg oligo): 0.61
- Average colony count on hygromycin plates ([6]; 5.0 μg oligo): 204
- hygromycin-resistant colonies per aureobasidin-resistant colony ([6]; 5.0 μg oligo): 1.26
- Average colony count on hygromycin plates ([6]; 7.5 μg oligo): 69
- hygromycin-resistant colonies per aureobasidin-resistant colony ([6]; 7.5 μg oligo): 0.42
- Average colony count on hygromycin plates ([6]; 10.0 μg oligo): 19
- hygromycin-resistant colonies per aureobasidin-resistant colony ([6]; 10.0 μg oligo): 0.12
- Colonies on Hygromycin ([6]; Msh2 mutant): 0
- Correction Efficiency ([6]; Msh2 mutant): 0
- Fold ([6]; Msh2 mutant): 0x
- Colonies on Hygromycin ([6]; Msh3 mutant): 0
- Correction Efficiency ([6]; Msh3 mutant): 0
- Fold ([6]; Msh3 mutant): 0x
- Colonies on Hygromycin ([6]; Msh6 mutant): 1,270
- Correction Efficiency ([6]; Msh6 mutant): 2.35
- Fold ([6]; Msh6 mutant): 0.55x
- Colonies on Hygromycin ([6]; Pms1 mutant): 2,280
- Correction Efficiency ([6]; Pms1 mutant): 114
- Fold ([6]; Pms1 mutant): 26.76x
- Colonies on Hygromycin ([6]; Rad1 mutant): 1,380
- Correction Efficiency ([6]; Rad1 mutant): 8.52
- Fold ([6]; Rad1 mutant): 2.00x
- Colonies on Hygromycin ([6]; Rad2 mutant): 919
- Correction Efficiency ([6]; Rad2 mutant): 3.78
- Fold ([6]; Rad2 mutant): 0.89x
- Colonies on Hygromycin ([6]; exo1 mutant): 486
- Correction Efficiency ([6]; exo1 mutant): 3.92
- Fold ([6]; exo1 mutant): 0.92x
- Colonies on Hygromycin ([6]; mre11 mutant): 12
- Correction Efficiency ([6]; mre11 mutant): 0.63
- Fold ([6]; mre11 mutant): 0.15x
- Colonies on Hygromycin ([6]; rad10 mutant): 54
- Correction Efficiency ([6]; rad10 mutant): 0.15
- Fold ([6]; rad10 mutant): 0.04x
- Colonies on Hygromycin ([6]; rad23 mutant): 66
- Correction Efficiency ([6]; rad23 mutant): 0.44
- Fold ([6]; rad23 mutant): 0.10x
- Colonies on Hygromycin ([6]; rad50 mutant): 336
- Correction Efficiency ([6]; rad50 mutant): 2.09
- Fold ([6]; rad50 mutant): 0.49x
- Colonies on Hygromycin ([6]; rad51/52 mutant): 212
- Correction Efficiency ([6]; rad51/52 mutant): 5.45
- Fold ([6]; rad51/52 mutant): 1.28x
- Colonies on Hygromycin ([6]; rad51 mutant): 104
- Correction Efficiency ([6]; rad51 mutant): 0.62
- Fold ([6]; rad51 mutant): 0.14x
- Colonies on Hygromycin ([6]; rad52 mutant): 266
- Correction Efficiency ([6]; rad52 mutant): 3.29
- Fold ([6]; rad52 mutant): 0.77x
- Colonies on Hygromycin ([6]; rad54 mutant): 2
- Correction Efficiency ([6]; rad54 mutant): 0.02
- Fold ([6]; rad54 mutant): 0x
- Colonies on Hygromycin ([6]; rad55 mutant): 0
- Correction Efficiency ([6]; rad55 mutant): 0
- Fold ([6]; rad55 mutant): 0x
- Colonies on Hygromycin ([6]; rad57 mutant): 984
- Correction Efficiency ([6]; rad57 mutant): 17.26
- Fold ([6]; rad57 mutant): 4.05x
- Colonies on Hygromycin ([6]; rad59 mutant): 1,198
- Correction Efficiency ([6]; rad59 mutant): 3.06
- Fold ([6]; rad59 mutant): 0.71x
- Colonies on Hygromycin ([6]; wild type): 1,218
- Correction Efficiency ([6]; wild type): 4.26
- Fold ([6]; wild type): 1x
- Colonies on Hygromycin ([6]; xrs2 mutant): 29
- Correction Efficiency ([6]; xrs2 mutant): 0.66
- Fold ([6]; xrs2 mutant): 0.15x
